US20110038869A1 (Genmab, published 2011)
Changes are numbered by the printed parent chain. One block for each binder: values may come before it.

What was measured:
biotinylated CD32bECDHis [1] = target: T1, biotinylated CD32bECDHis (human, UniProt P31994 43-223, limits assumed, biotinylated (sites not given)); experiment: competition ELISA, competitor 016
T1 sequence (looked up): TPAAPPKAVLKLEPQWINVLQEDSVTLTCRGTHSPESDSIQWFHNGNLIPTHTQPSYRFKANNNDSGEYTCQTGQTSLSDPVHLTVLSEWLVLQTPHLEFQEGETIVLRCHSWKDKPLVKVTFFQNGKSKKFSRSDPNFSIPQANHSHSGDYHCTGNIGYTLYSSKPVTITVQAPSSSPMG
Protocol: (§1) ELISA wells were coated overnight at 4° C. with anti-CD32b HuMabs serially diluted in PBS. The ELISA wells were washed with PBS, blocked for one hour at room temperature with 2% (v/v) chicken serum (Gibco, Paisley, Scotland) in PBS and washed again with PBS. Subsequently, the immobilized antibodies were incubated with biotinylated CD32bECDHis serially diluted in PBSTC. After washing with PBS/Tween, bound biotinylated CD32bECDHis was incubated with Streptavidin-poly-HRP (Sanquin, Amsterdam, The Netherlands) for 1 hr at RT an the reaction was developed as described supra.
(§2) To this end, ELISA wells coated with anti-CD32b HuMabs were incubated in the presence of an excess of CD32b-specific antibody and the predetermined concentration of biotinylated CD32bECDHis in fluid phase. The reaction was developed as described.

biotinylated CD32bECDHis [2] = target: T1, biotinylated CD32bECDHis; experiment: competition ELISA, competitor 020
Protocol: as §1, §2

biotinylated CD32bECDHis [3] = target: T1, biotinylated CD32bECDHis; experiment: competition ELISA, competitor 022
Protocol: as §1, §2

biotinylated CD32bECDHis [4] = target: T1, biotinylated CD32bECDHis; experiment: competition ELISA, competitor 024
Protocol: as §1, §2

biotinylated CD32bECDHis [5] = target: T1, biotinylated CD32bECDHis; experiment: competition ELISA, competitor 028
Protocol: as §1, §2

biotinylated CD32bECDHis [6] = target: T1, biotinylated CD32bECDHis; experiment: competition ELISA, competitor 038
Protocol: as §1, §2

biotinylated CD32bECDHis [7] = target: T1, biotinylated CD32bECDHis; experiment: competition ELISA, competitor 063
Protocol: as §1, §2

biotinylated CD32bECDHis [8] = target: T1, biotinylated CD32bECDHis; experiment: competition ELISA, competitor 2B6
Protocol: as §1, §2

CD32bECDHis [9] = target: T2, CD32bECDHis (human, UniProt P31994 43-223, limits assumed); experiment: TR-FRET competition against HuMab-KLH-AlexaFluor 647
T2 construct: Produced in HEK-293F cells; also called extracellular domain of CD32b with C-terminal His tag; soluble CD32b
T2 sequence (looked up): T1 sequence (looked up)
Source text: To study the interaction of anti-CD32b HuMabs with CD32b and CD32a in more detail TR-FRET technology was applied. To this end, CD32bECDHis and CD32aECDHis were labeled with a fluorescent donor molecule directed against the histidine tag (Anti-6×His Europium3+, PerkinElmer, Boston Mass.).
Briefly, all dilutions were made in 0.5× Lance detection buffer (PerkinElmer, Boston Mass.) supplemented with 0.2% BSA (obtained via dilution of 7.5% BSA Stabilizer solution, cat: CR84-100, PerkinElmer) and 0.03% (v/v) Tween-20 (Riedel de Haen, Seelze, Germany). CD32bECDHis and CD32aECDHis were diluted to 0.5 μg/ml. […] Anti-6×His Europium3+ (PerkinElmer, Boston Mass.) was diluted to 0.15 μg/ml. A 4-fold serial dilution of the tested HuMab antibody was made in a 96 wells non-binding plate (cat. 650261, Greiner Bio-one, Frickenhausen, Germany), ranging from 10 μg/ml-0.04 ng/ml. […] After overnight incubation at 4° C. in the dark, fluorescence was measured using an EnVision 2101 Multilabel reader (PerkinElmer, Boston, Mass.) applying the following settings; Lance/Delfia dual mirror, emission filter 615-665 nm, excitation filter 320 nm, delay time 60 μs, window 100 μs, 100 flashes, 2000 μs per cycle and bidirectional row-by-row reading. Binding curves were analyzed using non-linear regression (sigmoidal dose-response with variable slope) using GraphPad Prism V4.03 software (GraphPad Software, San Diego, Calif., USA).

CD32bECDHis [10] = target: T2, CD32bECDHis; experiment: SPR BIAcore 3000, antibody immobilized, CD32bECDHis analyte
Protocol: Antibody binding to CD32a and CD32b was analyzed by surface plasmon resonance in a BIAcore 3000 (GE Healthcare). CD32aECDHis and CD32bECDHis derived from HEK293 cells were used for the analysis. HuMab antibodies were immobilized on the CM-5 sensor chip according to the procedure recommended by the manufacturer. Briefly, after surface activation by EDC and NHS HuMab antibody was injected over the activated CM-5 surface in 10 mM sodium-acetate, pH ranging from 4.0 to 5.5 at 5 μl/min. followed by 1 M Ethanolamine for deactivation. Concentration series of CD32bECDHis in HBS-EP buffer were injected over the immobilized antibodies at a flow rate of 30 μl/min for 180 sec. Regeneration of the HuMab surface was performed by injection of 10 mM Glycine-HCl pH 2.0 or 10 mM sodium acetate pH 3.0. […] Kinetic analysis is performed using double reference subtraction and model 1:1 (langmuir) binding analysis. Specificity was studied by injecting CD32aECDHis at a concentration of […] over immobilized HuMab and isotype control antibodies under the same conditions as for the CD32b measurements.

% residual binding (biotinylated CD32bECDHis [1]): 101%
% residual binding (biotinylated CD32bECDHis [2]): 43%
% residual binding (biotinylated CD32bECDHis [3]): 17%
% residual binding (biotinylated CD32bECDHis [4]): 15%
% residual binding (biotinylated CD32bECDHis [5]): 34%
% residual binding (biotinylated CD32bECDHis [6]): 103%
% residual binding (biotinylated CD32bECDHis [7]): 68%
% residual binding (biotinylated CD32bECDHis [8]): 98%
% of maximal Fab-mediated inhibition (CD32bECDHis [9]): ~70%
IC50 (CD32bECDHis [9]): 0.45 nM
Kd (CD32bECDHis [10]): 0.9 nM
koff (CD32bECDHis [10]): 0.00126 s⁻¹
kon (CD32bECDHis [10]): 1.44e+06 M⁻¹ s⁻¹
B1: Antibody 024 (antibody, V domains shown)
VH: QVQLVQSGAEVKKPGASVKVSCKASGYTFTSYGLSWVRQAPGQGLEWMGWISPYNGNTHYAQKLQGRVTMTTDTSTSTAYMDLRSLRSDDTAVYYCARDSAAHGMDVWGQGTTVTVSS
VL: DIQMTQSPSSLSASVGDRVTITCRASQGISSWLAWYQQKPEKAPKSLIYAASSLQSGVPSRFSGSRSGTDFTLTISSLQPEDFATYYCQQYNSYPYTFGQGTKLEIKR
notes: also called HuMab 024

% residual binding (biotinylated CD32bECDHis [1]): 102%
% residual binding (biotinylated CD32bECDHis [2]): 35%
% residual binding (biotinylated CD32bECDHis [3]): 14%
% residual binding (biotinylated CD32bECDHis [4]): 13%
% residual binding (biotinylated CD32bECDHis [5]): 27%
% residual binding (biotinylated CD32bECDHis [6]): 115%
% residual binding (biotinylated CD32bECDHis [7]): 63%
% residual binding (biotinylated CD32bECDHis [8]): 96%
% of maximal Fab-mediated inhibition (CD32bECDHis [9]): ~70%
IC50 (CD32bECDHis [9]): 0.44 nM
Kd (CD32bECDHis [10]): 0.7 nM
koff (CD32bECDHis [10]): 0.00103 s⁻¹
kon (CD32bECDHis [10]): 1.48e+06 M⁻¹ s⁻¹
B2: Antibody 022 (antibody, V domains shown)
VH: B1 VH with Y80D, D99A
VL: B1 VL
notes: also called HuMab 022

% residual binding (biotinylated CD32bECDHis [1]): 109%
% residual binding (biotinylated CD32bECDHis [2]): 24%
% residual binding (biotinylated CD32bECDHis [3]): 6%
% residual binding (biotinylated CD32bECDHis [4]): 7%
% residual binding (biotinylated CD32bECDHis [5]): 15%
% residual binding (biotinylated CD32bECDHis [6]): 121%
% residual binding (biotinylated CD32bECDHis [7]): 45%
% residual binding (biotinylated CD32bECDHis [8]): 125%
% of maximal Fab-mediated inhibition (CD32bECDHis [9]): ~70%
IC50 (CD32bECDHis [9]): 0.35 nM
Kd (CD32bECDHis [10]): 1.3 nM
koff (CD32bECDHis [10]): 0.00199 s⁻¹
kon (CD32bECDHis [10]): 1.58e+06 M⁻¹ s⁻¹
B3: Antibody 028 (antibody, V domains shown)
VH: B1 VH with L4V, A24T, L34I, P53A, H59K, V68L, S77T, D82E, T115S
VL: B1 VL
notes: List 1 gives no VL for antibody 028; The VL is therefore uncertain; also called HuMab 028

% residual binding (biotinylated CD32bECDHis [1]): 105%
% residual binding (biotinylated CD32bECDHis [2]): 20%
% residual binding (biotinylated CD32bECDHis [3]): 6%
% residual binding (biotinylated CD32bECDHis [4]): 4%
% residual binding (biotinylated CD32bECDHis [5]): 13%
% residual binding (biotinylated CD32bECDHis [6]): 120%
% residual binding (biotinylated CD32bECDHis [7]): 42%
% residual binding (biotinylated CD32bECDHis [8]): 126%
% of maximal Fab-mediated inhibition (CD32bECDHis [9]): ~70%
IC50 (CD32bECDHis [9]): 0.35 nM
Kd (CD32bECDHis [10]): 2.4 nM
koff (CD32bECDHis [10]): 0.00363 s⁻¹
kon (CD32bECDHis [10]): 1.54e+06 M⁻¹ s⁻¹
B4: Antibody 020 (antibody, V domains shown)
VH: B1 VH with A9G, A24T, L34I, P53A, H59K, V68L, S77T, D82E
VL: B1 VL with S63R, R66G
notes: also called HuMab 020

% residual binding (biotinylated CD32bECDHis [1]): 104%
% residual binding (biotinylated CD32bECDHis [2]): 4%
% residual binding (biotinylated CD32bECDHis [3]): 1%
% residual binding (biotinylated CD32bECDHis [4]): 1%
% residual binding (biotinylated CD32bECDHis [5]): 3%
% residual binding (biotinylated CD32bECDHis [6]): 127%
% residual binding (biotinylated CD32bECDHis [7]): 27%
% residual binding (biotinylated CD32bECDHis [8]): 146%
% of maximal Fab-mediated inhibition (CD32bECDHis [9]): ~70%
IC50 (CD32bECDHis [9]): 0.3 nM
Kd (CD32bECDHis [10]): 1.3 nM
koff (CD32bECDHis [10]): 0.00179 s⁻¹
kon (CD32bECDHis [10]): 1.4e+06 M⁻¹ s⁻¹
B5: Antibody 026 (antibody, V domains shown)
VH: B1 VH with P53A, H59N
VL: B1 VL
notes: Human antibody; also called HuMab 026

% residual binding (biotinylated CD32bECDHis [1]): 105%
% residual binding (biotinylated CD32bECDHis [2]): 310%
% residual binding (biotinylated CD32bECDHis [3]): 350%
% residual binding (biotinylated CD32bECDHis [4]): 351%
% residual binding (biotinylated CD32bECDHis [5]): 317%
% residual binding (biotinylated CD32bECDHis [6]): 17%
% residual binding (biotinylated CD32bECDHis [7]): 283%
% residual binding (biotinylated CD32bECDHis [8]): 5%
IC50 (CD32bECDHis [9]): 0.37 nM
Kd (CD32bECDHis [10]): 1 nM
koff (CD32bECDHis [10]): 0.00156 s⁻¹
kon (CD32bECDHis [10]): 1.54e+06 M⁻¹ s⁻¹
B6: Antibody 038 (antibody, human IgG1, V domains shown)
VH: QVQLVESGGGVVQPGRSLRLSCAASGFTFSTYGMHWVRQAPGKGLEWVAVISHDGSDKYYADSVKGRFTISRDNSKNTLYLQMNSLRAEDTAVYYCARDQSIIETFDYWGQGTLVTVSS
VL: EIVLTQSPATLSLSPGERATLSCRASQSVSSYLAWYQQKPGQAPRLLIYDASNRATGIPARFSGSGSGTDFTLTISSLEPEDFAVYYCQQRSNWGFTFGPGTKVDIKR
notes: Human antibody; also called HuMab 038
